Laboratory results: the DeepSol protein solubility set

Test: soluble on expression in E. coli; label from the status in PepcDB or PDB records

Sequence	soluble on expression in E. coli
MEPADEPSELVSAEGRNRKAVLCQRCGSRVLQPGTALFSRRQLFLPSMRKKPALSDGSNPDGDLLQEHWLVEDMFIFENVGFTKDVGNIKFLVCADCEIGPIGWHCLDDKNSFYVALERVSHE	soluble
MEPHSLRYNLTVLSWDGSVQSGFLTEVHLDGQPFLRCDRQKCRAKPQGQWAEDVLGNKTWDRETRDLTGNGKDLRMTLAHIKDQKEGLHSLQEIRVCEIHEDNSTRSSQHFYYDGELFLSQNLETKEWTMPQSSRAQTLAMNVRNFLKEDAMKTKTHYHAMHADCLQELRRYLKSGVVLRRTVPPMVNVTRSEASEGNITVTCRASGFYPWNITLSWRQDGVSLSHDTQQWGDVLPDGNGTYQTWVATRICQGEEQRFTCYMEHSGNHSTHPVPS	soluble
MEQDINNQTGKKIFLNEECFLELDKLPQHVSVLGVSGFGKSNILLHFLKYAIDNDHPLIFVNGKGDKELITQFEHYQTSAKQLSPEDGFDTVKLVALKNTSAKIWSLDDRIATIKYNPFK	soluble
MEQKHNGIIFTAIPNESNEYYQPFYEDLIYFNECLNEKKSIADQLISLSVEEQDFHTSCFEYDDIWLRDVAPVVTNHLVKFKYRPNYLPDDQGRYLDQQFNKWLKKNDFEYVKSPLILDGGNLIWNKKDTVILTERIFDDNDDWTEEEIIEQLEWDLDVSRVIIIPAEEGDVLAHADGMVKFIDEHTMFISDFLGDHEFRYSVEEIIQEQMPEAEFIVVPSSYTEKGQYDQEIASAKGLYINMLESCDALYVPKFGLAKDEEVLRYIQQYTEKQVIQIHVGEISTMGGAMNCLTWYCPSHLLPSKMRRLKNQNEDFSMKKIFDWFLEHHHHHH	soluble
MEQRLLAVFDFDGTITRHDSFVPFLKFAFGQRVFSVRMARLVLPSLGYLTKRLSRDELKGRLIKAFLSGVEVQWLQQKAEAFCHSHWKRLMRPAALESIAAEIEKGAIVTLCSASPAMVLQPFADRLKVELIGTNLEVIDGKLTGLIEGSNCRCDSKVARLESVYGPLTQFRVRAWGDTRGDHELLAAAQDAHWRLFHPTWRRGRYKGPVNAKLHNPDGKDGPTR	not soluble
MERCGWVSQDPLYIAYHDNEWGVPETDSKKLFEMICLEGQQAGLSWITVLKKRENYRACFHQFDPVKVAAMQEEDVERLVQDAGIIRHRGKIQAIIGNARAYLQMEQNGEPFVDFVWSFVNHQPQVTQATTLSEIPTSTSASDALSKALKKRGFKFVGTTICYSFMQACGLVNDHVVGCCCYPGNKPLEHHHHHH	soluble
MERSLYSPDLRIPPANIHNNHLKIDTDRKIRFAITHPEIKKAKGTIVILESYANALEEYFLPMNEISNRGFYTAIFDWFGREESQPDKQKQSRYNYFNINNDINDLNEFLKNIVYCNCPPPYYMLTYGMGGLIALSGLDLINHKFNKMLCISPLFAPFGNKTNSFQHKLTQLLSDIGLGFLPAKGGEKLKQKSTQFMRINEAALSSDFLIKRPTSRWMASVLNAIDSVKKNILNGHLEIPTLFILANQNNIANNIEIRQLCQYTHLTDSITITGAELDTIMHEESYQKQFWIAFDAFIRG	not soluble
MERSWGMGHFPHMQKKTLDAFVRGLQIVMEAEGIKMKPLSVAAGMGESGVRDLIRNESSPKVANAYALARELGRTVDEIIQIGMTGDLNARPAHAPIAVAGCVGAGARVDLLDAYEKGDGMYHVARPPQLKPHGIVAVEVKGESMMPLYRPGSVLFYTRAAAEGVPVEALNTPCVCEDADGRAWLKVVKVGSQEGTFSLLSLNPDADNMHGVRLKWAAPVLLTLSPDYVERVYV	not soluble
MERVASVLSALKPTLEKHQLGSWKPAEVDRLCAMLREYGKQERRDKCGTSCLDGAATALASLPSSSSVPPSLPSGGDDVEDENDADEEAFAGVVSEVDRCLSLVRDFLKRRMPFGAVVEPTLPAGTAERQAPQSSSADIISCKRARSLSGEPSSSAPTSNSVHSGAAVVEAPVYAVDAFLYAEGDIEKLVEAKKLAREYCCRCGSTDLGLVEFITHSFSQDQLVYLSCFLLPHLLDVVVASHEASRPLSIVDVGSRLGIVLWACAFALQRGLLAPAQAATTDAAADDAAPEVNLVGIELDATFVKISQDVARRFFAQRRRHAPKLVSVPQPAAANGVDAKLPDVSSSIQLLQSDCFEGAAASALSESSLVVMHNVFEYFCTTAVEHARCWLKLRRLVHRSGQFLVCSPALEVTLGTFTDEVWLQAWQLENGNDARGASTPLAWLASYVEPFDTADVASDFLTMRTLSCEGCDAGSDGDKHHEDHHGRSRDHHHHSSEDDEGDGEEASEMAEQIQRIYVYCVK	not soluble
MERVNERREQNNPNGCCLRDEDFSQFNSEAFLRELAADLNEDDTNDLSSSLFATSRIPEEHIRSTGLVERAEHYNKSVDQRTMTDARIAFEEEQLKNGKSPNAGTSGMENLADSGTHVPRRGRGDYFGKLRSFENGVSFPSRPPLTSEHSSSGDSYFNNSHKTTPNYRRFANSNDSSRDNSQMEYKAENDASHTSQSSNRFGFNSQINRTDIHPPAARHTFNPAAAYNGKITPDFRFNYIPNAAVPAPSVVPVIATHPGVAPPSIVPSPIRIGQRYPKRPDNMPKPSSEPKHLNHNYYQIELYGATQEDRIAQRIEKTVRQTEAPVRRF	not soluble
MESKRLDNAALAAGISPNYINAHGKPQSISAETKRRLLDAMHQRTATKVAVTPVPNVMVYTSGKKMPMVVEGSGEYSWQLTTEEGTQYKGHVTGGKAFNLPTKLPEGYHTLTLTQDDQRAHCRVIVAPKRCYEPQALLNKQKLWGACVQLYTLRSEKNWGIGDFGDLKAMLVDVAKRGGSFIGLNPIHALYPANPESASPYSPSSRRWLNVIYIDVNAVEDFHLSEEAQAWWQLPTTQQTLQQARDADWVDYSTVTALKMTALRMAWKGFAQRDDEQMAAFRQFVAEQGDSLFWQAAFDALHAQQVKEDEMRWGWPAWPEMYKNVDSPEVRQFCEEHRDDVDFYLWLQWLAYSQFAACWEISQGYEMPIGLYRDLAVGVAEGGAETWCDRELYCLKASVGAPPDILGPLGQNWGLPPMDPHIITARAYEPFIELLRANMQNCGALRIDHVMSMLRLWWIPYGETADQGAYVHYPVDDLLSILALESKRHRCMVIGEDLGTVPVEIVGKLRSSGVYSYKVLYFENDHEKTFRAPKAYPEQSMAVAATHDLPTLRGYWESGDLTLGKTLGLYPDEVVLRGLYQDRELAKQGLLDALHKYGCLPKRAGHKASLMSMTPTLNRGLQRYIADSNSALLGLQPEDWLDMAEPVNIPGTSYQYKNWRRKLSATLESMFADDGVNKLLKDLDRRRRAAAKKK	not soluble
MESNNGIILRVAEANSTDPGMSRVRLDESSRRLLDAEIGDVVEIEKVRKTVGRVYRARPEDENKGIVRIDSVMRNNCGASIGDKVKVRKVRTEIAKKVTLAPIIRKDQRLKFGEGIEEYVQRALIRRPMLEQDNISVPGLTLAGQTGLLFKVVKTLPSKVPVEIGEETKIEIREEPASEVLEEGG	soluble
MESYLTVIEQNGQLLVDSREVAEMVGKRHTDLLRSIDGYVAILLNAKLRSVEFFLESTYKDATGRSLKHFHLTRKGCDMVANKMTGAKGVLFTAQYVSKFEEMEKALKARPSLIDTYLDMNEDERAIAYFTERKAKRELQEQLTLAEPKVEKYDRFLNTDGLMKIGQVAKAIGIKGMGQNNLFRFLRENKVLIDGTNKNAPYQKYVERGFFQVKTQETSVGIKTITLVTPKGADFIVDLLKKHGHKREIAS	not soluble
METATHYDLFIIGGGINGCGLARDAAGRGFKVGLAEMNDLASGTSSASTKLIHGGLRYLEYYEFRLVREALKEREIIWRMAPHIVRPLRFLLPYHKKLRPAWMLRFGLFIYDYLGNWNQKLWRSKTVNFSKSFCSILKEEYHKGFEYSDARVDDARLVIANARDAEKWGAVIKVRTEVLSLKSEEKKWVVILRDKLSGKESCVTASYVANMTGPWINHILSNVLDCKENPPVRLVRGSHILVPKLYAHDRAYIFQNGDGRILFSIPYQEEFTLLGTTDCGYQGDPADVHITDTEIDYICTAASEYFVQPVLRESIVWTYSGVRPLYDDGASKAQEITRDYVLKEMGTESTPRILNLYGGKITTYRKLAEDAMKFVEKALGKKGKPWTINSTLPGGDFPHNKLDTIENKIALLVPDLDAFTYRRLARSYGCEALMIFANGKADKGKNFGHGLYEVEVKWLMEKEWAKTCEDVLWRRSKLGLLFNKKEINALTAYMQKIQDNEQNS	not soluble
METCFANLDEQTKEKAKSILEQKKSGKLTHEQAKEELTKLGVKLPEKEKHEDIFAGLDEATKTKAKAILDNEKKQLEALNVDLPHHKFFMKKEDK	not soluble
METDLLDADECSENEKTLESIEKVFSASHLLVKILEFSSAQHRQKLYIAGSRSRQGDLKGFLDLRLVNQQFNEGVCIAVRKEFKHIQIDIDDNFVRCNYFTIGLHHKPPEPGNRENANVEGEDGNPVEEDEEMPAHEDLPSEDTEDVRFLVKFLRWLAGTFDPIVENFKVFDSWSFKPCSLPPSWADRLTVFISMHPDMEYCNCEQCIRIARNCKESFGPLSFRMVEDALRDQNISYGALTFTDAFLADIAIAYTISIDNRDRFDANRFIRDFGGIRVDELTFAVQTLATYRDERPKPQPLEVLQLILRLWEAKTVEFEIVKFMENDYYLQRCAWERSGAFTLAHFATYSFQHFDEFVHVVPYKFSGTLDRDLRNEIMPIFDLRIDPSEGPLRMGSNLSLLSLASQNNENSTFTWINQGRIAFNMFRANHYMFITSGIVEFRGMLGTANWLKFTIRDMMRSTWGPRGSNVTERGKTVYWINFMEDVGDCIQIVWSEHAKELLETNFPNLVVTMNSSHAFRNCSNRRAATYNDSKRPDVQKKPINTFYCTFYDSVRNNTTHMKLIQIAN	not soluble
METEVMKSFNNELSSLFDSKNMSKNKIQDITKAAIKAKSQYKHVVFSVEKLINKCKPDQRLNVLYVIDSIVRASKHQLKEKDTFGPRFMKQFDKFLMPLLKCGQKEKMRTVRTLNLWMSNKVFKESEIQPLREMCKASGLTIDFEEVELAVKGKQADMSIYSGVYKKKPKRSSSSSQPKSRTPTNPHPDDGLLGAGPSSALRSVPDIPNFVLSEDYFLGTISEREMLELVQKFGIDRSGVLSKDKNLLQRALQIFAGSLSQKVEEVLAENNRINGSSIQNVLTKDFEYSDDEEEKEKEPQPEKQKNLPHAQVLLLAQSLLTQPQILAKLAEVLIPQGNPFGLPFPGEHIVPTSSAALTLGAPPPNLMALQQSLPPGFPNQQLGLPNLSGLNQAQLMNVQNAQNMLQLQQRAAQLQALQGNPNAQRNLLMLGNPLLNPFALQHGVNPMLNDLQAAAAAQQQAMLNEAAQSPEKKILELSGGNSGINNSGDVERARLREKEKERESKERRRMGLPPVRIGFTIIASRTLWLKKIPTNIVENDLKQAVESCGEASRVKVIGNRACAYITMENRRSANDVVSKMREVSVAKKMVKVYWARSPGMDSDQFSDLWDSNRGVLEIPYEKLPLDLVALCEGAMLDIESLPIEKKLLYKETGETVISIPPPNIQPPVPHPPPMGFPFQHQLTQLPGQPRPAGLPPGVPPMFNLNAPPPPGIPGYPPAPPPPGVGPPPPQGIPPMGFDPNKPPPPMFQQGFNAGAPPPPFGRGAGPMSSFPPPPRGGMHHMPPPPSFRGGRGGHGGPPPPHFDRRGGGGPPFRPENGRGRLLDQSEMWNREQREMRGGGGAGRDGGREHRDYDRDRSQIDRRRQDDMGARRRSRWGDDDRRDDDRRDDRRDDRRESRRRSPRSPRSPDRRTRRSPSYEREEPPVKKTSVEEETVSSTTLDELKPSVEPTPVPAPIPAPAPELKAAEEPVKIVAEHHEDQTDEVPMDLE	not soluble
METHEKIRLMRELNKWSQEDMAEKLAMSAGGYAKIERGETQLNIPRLEQLAQIFKIDMWDLLKSGGGGMVFQINEGDSGGDIALYASGDVSMKIEFLKMELKHCKEMLEQKDKEIELLRKLTETV	not soluble
